Patent US6689567 (UNIVERSITY OF GUELPH, dated 2004)

Biological target: the molecule itself
Assay: gel filtration on G100 Sephadex; self-association (homodimer)

B1: FlaA1 from Helicobacter pylori carrying a N-terminal hexahistidine tag (enzyme)
chain: MHHHHHHGSMSMPNHQNMLDNQTILITGGTGSFGKCFVRKVLDTTNAKKIIVYSRDELKQSEMAMEFNDPRMRFFIGDVRDLERLNYALEGVDICIHAAALKHVPIAEYNPLECIKTNIMGASNVINACLKNAISQVIALSTDKAANPINLYGATKLCSDKLFVSANNFKGSSQTQFSVVRYGNVVGSRGSVVPFFKKLVQNKASEIPITDIRMTRFWITLDEGVSFVLKSLKRMHGGEIFVPKIPSMKMTDLAKALAPNTPTKIIGIRPGEKLHEVMIPKDESHLALEFEDFFIIQPTISFQTPKDYTLTKLHEKGQKVAPDFEYSSHNNNQWLEPDDLLKLL
notes: Full-length FlaA1 with an N-terminal hexahistidine tag, overexpressed in E. coli (pET system) and purified; also called HP0840; His-FlaA1
B1: binds.
